{"source": "the supplement of paper PMC7877785", "assay": "self-splicing fitness, log relative to wild type (ln ratio); higher = more splicing; Tetrahymena group I intron in knt gene, E. coli kanamycin selection, DiMSum; sequences stand for … in CUCUCU…GGAGGGAAAAGUUAUCAGGCAUGCACCUGGUAGCUAGUCUUUAAACCAAUAGAUUGCAUCGGUUUAAAAGGCAAGACCGUCAAAUUGCGGGAAAGGGGUCAACAGCCGUUCAGUACCAAGUCUCAGGGGAAACUUUGAGAUGGCCUUGCAAAGGGUAUGGUAAUAAGCUGACGGACAUGGUCCUAACCACGCAGCCAAGUCCUAAGUCAACAGAUCUUCUGUUGAUAUGGAUGCAGUUCACAGACUAAAUGUCGGUCGGGGAAGAUGUAUUCUUCUCAUAAGAUAUAGUCGGACCUCUCCUUAAUGGGAGCUAGCGGAUGAAGUGAUGCAACACUGGAGCCGCUGGGAACUAAUUUGUAUGCGAAAGUAUAUUGAUUAGUUUUGGAGUACUCGUGGUCG", "procedure,_shortened": "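Pooled colonies went to amplicon sequencing on an Illumina HiSeq 2500 after six replicate transformations. The plates were LB agar with 100 μg/mL carbenicillin, 50 μM IPTG and 0.2% rhamnose, with or without 25 μg/mL kanamycin, incubated overnight at 37°C or 30°C. The E. coli BL21(DE3) library had all eight P1ex-region intron nucleotides randomised, the intron placed in the knt kanamycin-resistance gene on pET-22b(+). DiMSum fitness is the error-weighted combination of replicate fold changes, kanamycin against none, normalised to wild type.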", "note": "± gives the uncertainty stated by the source."}
{"sequence": "GUGCAGCAAUAUUACGGCCC", "values": [{"measurement": "self-splicing fitness (ln)", "setting": "30 °C", "result": "-0.475 ± 0.11"}, {"measurement": "self-splicing fitness (ln)", "setting": "37 °C", "result": "-0.704 ± 0.17"}]}
{"sequence": "CCAGAGCAAUAUUACGCGUA", "values": [{"measurement": "self-splicing fitness (ln)", "setting": "30 °C", "result": "-1.99 ± 0.19"}, {"measurement": "self-splicing fitness (ln)", "setting": "37 °C", "result": "-4.46 ± 0.38"}]}
{"sequence": "UCUAAGCAAUAUUACGUUGU", "values": [{"measurement": "self-splicing fitness (ln)", "setting": "30 °C", "result": "-4.19 ± 0.24"}, {"measurement": "self-splicing fitness (ln)", "setting": "37 °C", "result": "-1.86 ± 0.15"}]}
{"sequence": "UGGCAGCAAUAUUACGGAUU", "values": [{"measurement": "self-splicing fitness (ln)", "setting": "30 °C", "result": "-3.95 ± 0.24"}, {"measurement": "self-splicing fitness (ln)", "setting": "37 °C", "result": "-1.88 ± 0.2"}]}
{"sequence": "CUCUAGCAAUAUUACGCUAA", "values": [{"measurement": "self-splicing fitness (ln)", "setting": "30 °C", "result": "-2.65 ± 0.35"}, {"measurement": "self-splicing fitness (ln)", "setting": "37 °C", "result": "-2.26 ± 0.4"}]}
{"sequence": "UACUAGCAAUAUUACGCGGU", "values": [{"measurement": "self-splicing fitness (ln)", "setting": "30 °C", "result": "-3.43 ± 0.47"}, {"measurement": "self-splicing fitness (ln)", "setting": "37 °C", "result": "-2.52 ± 0.33"}]}
{"sequence": "GGCGAGCAAUAUUACGCUUU", "values": [{"measurement": "self-splicing fitness (ln)", "setting": "30 °C", "result": "-2.76 ± 0.23"}, {"measurement": "self-splicing fitness (ln)", "setting": "37 °C", "result": "-1.22 ± 0.19"}]}
{"sequence": "AUCGAGCAAUAUUACGGCCC", "values": [{"measurement": "self-splicing fitness (ln)", "setting": "30 °C", "result": "-3.15 ± 0.35"}, {"measurement": "self-splicing fitness (ln)", "setting": "37 °C", "result": "1.32 ± 0.32"}]}
{"sequence": "GGUUAGCAAUAUUACGGCCA", "values": [{"measurement": "self-splicing fitness (ln)", "setting": "30 °C", "result": "-0.0519 ± 0.23"}, {"measurement": "self-splicing fitness (ln)", "setting": "37 °C", "result": "0.0427 ± 0.2"}]}
{"sequence": "GAAUAGCAAUAUUACGACAG", "values": [{"measurement": "self-splicing fitness (ln)", "setting": "30 °C", "result": "-3.2 ± 0.28"}, {"measurement": "self-splicing fitness (ln)", "setting": "37 °C", "result": "-2.62 ± 0.35"}]}
{"sequence": "UUUAAGCAAUAUUACGAUUA", "values": [{"measurement": "self-splicing fitness (ln)", "setting": "30 °C", "result": "-0.637 ± 0.1"}, {"measurement": "self-splicing fitness (ln)", "setting": "37 °C", "result": "-0.207 ± 0.11"}]}
{"sequence": "CCUAAGCAAUAUUACGAGGG", "values": [{"measurement": "self-splicing fitness (ln)", "setting": "30 °C", "result": "-3.2 ± 0.17"}, {"measurement": "self-splicing fitness (ln)", "setting": "37 °C", "result": "-3 ± 0.35"}]}
{"sequence": "CAAGAGCAAUAUUACGACGA", "values": [{"measurement": "self-splicing fitness (ln)", "setting": "30 °C", "result": "-3.01 ± 0.2"}, {"measurement": "self-splicing fitness (ln)", "setting": "37 °C", "result": "-1.77 ± 0.23"}]}
{"sequence": "CUCGAGCAAUAUUACGCUAC", "values": [{"measurement": "self-splicing fitness (ln)", "setting": "30 °C", "result": "-0.697 ± 0.2"}]}
{"sequence": "AUAUAGCAAUAUUACGGUGU", "values": [{"measurement": "self-splicing fitness (ln)", "setting": "30 °C", "result": "-2.03 ± 0.16"}, {"measurement": "self-splicing fitness (ln)", "setting": "37 °C", "result": "-1.38 ± 0.17"}]}
{"sequence": "ACCUAGCAAUAUUACGGCAC", "values": [{"measurement": "self-splicing fitness (ln)", "setting": "30 °C", "result": "-0.933 ± 0.062"}, {"measurement": "self-splicing fitness (ln)", "setting": "37 °C", "result": "-0.492 ± 0.07"}]}
{"sequence": "GAAGAGCAAUAUUACGGACU", "values": [{"measurement": "self-splicing fitness (ln)", "setting": "30 °C", "result": "-2.93 ± 0.22"}, {"measurement": "self-splicing fitness (ln)", "setting": "37 °C", "result": "-1.14 ± 0.13"}]}
{"sequence": "GCACAGCAAUAUUACGGGUC", "values": [{"measurement": "self-splicing fitness (ln)", "setting": "30 °C", "result": "-3.81 ± 0.17"}, {"measurement": "self-splicing fitness (ln)", "setting": "37 °C", "result": "-1.62 ± 0.097"}]}
{"sequence": "AAUCAGCAAUAUUACGUAUG", "values": [{"measurement": "self-splicing fitness (ln)", "setting": "30 °C", "result": "-0.407 ± 0.079"}, {"measurement": "self-splicing fitness (ln)", "setting": "37 °C", "result": "0.138 ± 0.11"}]}
{"sequence": "CACCAGCAAUAUUACGGGUC", "values": [{"measurement": "self-splicing fitness (ln)", "setting": "30 °C", "result": "-2.54 ± 0.07"}, {"measurement": "self-splicing fitness (ln)", "setting": "37 °C", "result": "-2.17 ± 0.092"}]}
{"sequence": "AACUAGCAAUAUUACGGCCU", "values": [{"measurement": "self-splicing fitness (ln)", "setting": "30 °C", "result": "-0.472 ± 0.09"}, {"measurement": "self-splicing fitness (ln)", "setting": "37 °C", "result": "-0.0804 ± 0.095"}]}
{"sequence": "AUACAGCAAUAUUACGACCC", "values": [{"measurement": "self-splicing fitness (ln)", "setting": "30 °C", "result": "-1.1 ± 0.21"}, {"measurement": "self-splicing fitness (ln)", "setting": "37 °C", "result": "-0.179 ± 0.17"}]}
{"sequence": "ACUAAGCAAUAUUACGUUCA", "values": [{"measurement": "self-splicing fitness (ln)", "setting": "30 °C", "result": "-1.29 ± 0.1"}, {"measurement": "self-splicing fitness (ln)", "setting": "37 °C", "result": "-0.98 ± 0.098"}]}
{"sequence": "GGCAAGCAAUAUUACGUACU", "values": [{"measurement": "self-splicing fitness (ln)", "setting": "30 °C", "result": "-0.208 ± 0.072"}, {"measurement": "self-splicing fitness (ln)", "setting": "37 °C", "result": "0.344 ± 0.088"}]}
{"sequence": "GACGAGCAAUAUUACGUUCA", "values": [{"measurement": "self-splicing fitness (ln)", "setting": "30 °C", "result": "-1.67 ± 0.19"}, {"measurement": "self-splicing fitness (ln)", "setting": "37 °C", "result": "-0.881 ± 0.16"}]}
{"sequence": "CUCAAGCAAUAUUACGUAAU", "values": [{"measurement": "self-splicing fitness (ln)", "setting": "30 °C", "result": "-3.29 ± 0.12"}, {"measurement": "self-splicing fitness (ln)", "setting": "37 °C", "result": "-2.22 ± 0.1"}]}
{"sequence": "ACAAAGCAAUAUUACGAUAC", "values": [{"measurement": "self-splicing fitness (ln)", "setting": "30 °C", "result": "-2.89 ± 0.2"}, {"measurement": "self-splicing fitness (ln)", "setting": "37 °C", "result": "-2.29 ± 0.16"}]}
{"sequence": "AUUAAGCAAUAUUACGUAGC", "values": [{"measurement": "self-splicing fitness (ln)", "setting": "30 °C", "result": "-4.67 ± 0.45"}, {"measurement": "self-splicing fitness (ln)", "setting": "37 °C", "result": "-1.84 ± 0.22"}]}
{"sequence": "AAUGAGCAAUAUUACGAAUC", "values": [{"measurement": "self-splicing fitness (ln)", "setting": "37 °C", "result": "-1.74 ± 0.3"}]}
{"sequence": "CGUUAGCAAUAUUACGCCCG", "values": [{"measurement": "self-splicing fitness (ln)", "setting": "30 °C", "result": "-0.798 ± 0.29"}]}
{"sequence": "GUGGAGCAAUAUUACGGGCA", "values": [{"measurement": "self-splicing fitness (ln)", "setting": "30 °C", "result": "-2.2 ± 0.28"}, {"measurement": "self-splicing fitness (ln)", "setting": "37 °C", "result": "-1.76 ± 0.45"}]}
{"sequence": "CUAAAGCAAUAUUACGGCUC", "values": [{"measurement": "self-splicing fitness (ln)", "setting": "30 °C", "result": "-3.26 ± 0.4"}]}
{"sequence": "GAUAAGCAAUAUUACGUAAU", "values": [{"measurement": "self-splicing fitness (ln)", "setting": "30 °C", "result": "-1.78 ± 0.073"}, {"measurement": "self-splicing fitness (ln)", "setting": "37 °C", "result": "-0.923 ± 0.1"}]}
{"sequence": "AAGCAGCAAUAUUACGGAAC", "values": [{"measurement": "self-splicing fitness (ln)", "setting": "30 °C", "result": "-3.6 ± 0.3"}]}
{"sequence": "UCAAAGCAAUAUUACGACAC", "values": [{"measurement": "self-splicing fitness (ln)", "setting": "30 °C", "result": "-3.05 ± 0.48"}, {"measurement": "self-splicing fitness (ln)", "setting": "37 °C", "result": "-1.97 ± 0.43"}]}
